B1: SAT2 (parent)
chain: GYGIYYFIYSTWKGRTIYLEDIYV

Consider 94 variants from the supplement of paper PMC10567573.
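Further: lentivirally expressed fusions sorted by FACS into six bins by GFP to DsRed ratio, PSI derived from sequencing read proportions per bin multiplied by bin number.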

In this data set the parent is B1. The data set is described as follows: protein stability index of a GFP-peptide fusion (GPS, HEK-293T) (PSI 1-6); higher = more stable. To be noted: c terminus: a fixed tail appended.
For GYGIYYPIYSTWKGRTIYLEDIYV [F7P], the protein stability index is 3.4.

GYGIYYWIYSTWKGRTIYLEDIYV [F7W]: the protein stability index was found to be 2.65.

On to GYGIYYEIYSTWKGRTIYLEDIYV [F7E], for which the protein stability index was 2.37.

On to GYGIYYAIYSTWKGRTIYLEDIYV [F7A], for which the protein stability index was 2.

For the variant GYGIYYKIYSTWKGRTIYLEDIYV [F7K], the protein stability index was found to be 3.88.

Turning to GYGIYYNIYSTWKGRTIYLEDIYV [F7N], the protein stability index is 3.37.

As to GYGIYYQIYSTWKGRTIYLEDIYV [F7Q], the protein stability index turned out to be 5.82.

Consider GYGIYYSIYSTWKGRTIYLEDIYV [F7S], for which the protein stability index was 2.8.

As to RYGIYYFIYSTWKGRTIYLEDIYV [G1R], the protein stability index was found to be 2.21.

IYGIYYFIYSTWKGRTIYLEDIYV [G1I]: the protein stability index was 1.2.

As for FYGIYYFIYSTWKGRTIYLEDIYV [G1F], the protein stability index was found to be 2.13.

CYGIYYFIYSTWKGRTIYLEDIYV [G1C]: the protein stability index turned out to be 1.66.

Regarding MYGIYYFIYSTWKGRTIYLEDIYV [G1M], the protein stability index was found to be 3.54.

With YYGIYYFIYSTWKGRTIYLEDIYV [G1Y], the protein stability index stood at 3.1.

Consider GYGIYYFIYSTWKGRTIVLEDIYV [Y18V], for which the protein stability index came out at 3.04.

Turning to GYGIYYFIYSTWKGRTIILEDIYV [Y18I], the protein stability index turned out to be 1.92.

For the variant GYGIYYFIYSTWKGRTIALEDIYV [Y18A], the protein stability index stood at 1.71.

In the case of GYGIYYFIYSTWKGRTIHLEDIYV [Y18H], the protein stability index is 2.59.

As to GYGIYYFIYSTWKGRTISLEDIYV [Y18S], the protein stability index came out at 2.33.

With GYGIYYFIYSTWKGRTIMLEDIYV [Y18M], the protein stability index is 2.33.

Consider GYGIYYFIYSTWKGRTITLEDIYV [Y18T], for which the protein stability index stood at 2.92.

On to GCGIYYFIYSTWKGRTIYLEDIYV [Y2C], for which the protein stability index was found to be 2.61.

As for GPGIYYFIYSTWKGRTIYLEDIYV [Y2P], the protein stability index is 1.91.

Take GIGIYYFIYSTWKGRTIYLEDIYV [Y2I]: the protein stability index amounted to 3.75.

Take GSGIYYFIYSTWKGRTIYLEDIYV [Y2S]: the protein stability index was 3.01.

In the case of GMGIYYFIYSTWKGRTIYLEDIYV [Y2M], the protein stability index amounted to 2.92.

For GQGIYYFIYSTWKGRTIYLEDIYV [Y2Q], the protein stability index was 4.95.

Regarding GYGIYYFIYSTWYGRTIYLEDIYV [K13Y], the protein stability index is 1.48.

GYGIYYFIYSTWPGRTIYLEDIYV [K13P]: the protein stability index worked out at 1.99.

For GYGIYYFIYSTWGGRTIYLEDIYV [K13G], the protein stability index is 2.94.

On to GYGIYYFIYSTWHGRTIYLEDIYV [K13H], for which the protein stability index came to 2.87.

Consider GYGIYYFIYYTWKGRTIYLEDIYV [S10Y], for which the protein stability index was 2.76.

For GYGIYYFIYETWKGRTIYLEDIYV [S10E], the protein stability index is 3.09.

Take GYGIYYFIYPTWKGRTIYLEDIYV [S10P]: the protein stability index came to 3.17.

Turning to GYGIYYFIYNTWKGRTIYLEDIYV [S10N], the protein stability index is 2.55.

As for GYGIYYFIYWTWKGRTIYLEDIYV [S10W], the protein stability index worked out at 2.26.

As to GYGIYYFIYMTWKGRTIYLEDIYV [S10M], the protein stability index stood at 3.91.

For the variant GYGIYYFIYSTWKGRTIYLNDIYV [E20N], the protein stability index was 4.06.

As for GYGIYYFIYSTWKGRTIYLHDIYV [E20H], the protein stability index amounted to 2.91.

For GYGIYYFIYSTWKGRTIYLSDIYV [E20S], the protein stability index was 3.32.

Regarding GYGIYYFIYSTWKGRTIYLLDIYV [E20L], the protein stability index stood at 2.1.

GYGIYYFIYSTWKGRTIYLWDIYV [E20W]: the protein stability index was 2.35.

As to GYGIYYFIYSTWKGRTIYLVDIYV [E20V], the protein stability index was 3.13.

For GYGIYYFIYSAWKGRTIYLEDIYV [T11A], the protein stability index was determined as 2.97.

In the case of GYGIYYFIYSDWKGRTIYLEDIYV [T11D], the protein stability index is 3.32.

GYGIYYFIYSVWKGRTIYLEDIYV [T11V]: the protein stability index came to 3.88.

Turning to GYGIYYFIYSMWKGRTIYLEDIYV [T11M], the protein stability index came out at 3.99.

For the variant GYGIYYFIYSWWKGRTIYLEDIYV [T11W], the protein stability index was found to be 3.78.

Consider GYGIYYFIYSSWKGRTIYLEDIYV [T11S], for which the protein stability index came out at 2.44.

Take GYGIYYFIYSIWKGRTIYLEDIYV [T11I]: the protein stability index was determined as 2.78.

GYGIYYFIYSTKKGRTIYLEDIYV [W12K]: the protein stability index stood at 2.65.

Consider GYGIYYFIYSTEKGRTIYLEDIYV [W12E], for which the protein stability index came to 2.55.

Regarding GYGIYYFIYSTCKGRTIYLEDIYV [W12C], the protein stability index is 2.1.

In the case of GYGIYYFIYSTVKGRTIYLEDIYV [W12V], the protein stability index amounted to 3.31.

As to GYGIYYFIYSTDKGRTIYLEDIYV [W12D], the protein stability index amounted to 2.25.

On to GYGIYYFVYSTWKGRTIYLEDIYV [I8V], for which the protein stability index was 2.02.

Turning to GYGIYYFQYSTWKGRTIYLEDIYV [I8Q], the protein stability index is 1.27.

In the case of GYGIYYFLYSTWKGRTIYLEDIYV [I8L], the protein stability index is 2.2.

As for GYGIYYFDYSTWKGRTIYLEDIYV [I8D], the protein stability index stood at 3.24.

Consider GYGIYYFAYSTWKGRTIYLEDIYV [I8A], for which the protein stability index was determined as 1.76.

As for GYGIYYFTYSTWKGRTIYLEDIYV [I8T], the protein stability index came out at 4.7.

Consider GYGIYYFSYSTWKGRTIYLEDIYV [I8S], for which the protein stability index came out at 3.1.

As to GYGIYYFRYSTWKGRTIYLEDIYV [I8R], the protein stability index amounted to 3.57.

For the variant GYGIYYFCYSTWKGRTIYLEDIYV [I8C], the protein stability index amounted to 1.7.

Regarding GYPIYYFIYSTWKGRTIYLEDIYV [G3P], the protein stability index stood at 2.7.

In the case of GYFIYYFIYSTWKGRTIYLEDIYV [G3F], the protein stability index was found to be 4.2.

With GYCIYYFIYSTWKGRTIYLEDIYV [G3C], the protein stability index was found to be 2.12.

With GYKIYYFIYSTWKGRTIYLEDIYV [G3K], the protein stability index is 2.62.

For GYGIYYFIYSTWKGRTIYLENIYV [D21N], the protein stability index is 2.74.

As for GYGIYYFIYSTWKGRTIYLEHIYV [D21H], the protein stability index worked out at 2.67.

As for GYGIYYFIYSTWKGRTIYLEAIYV [D21A], the protein stability index stood at 2.28.

Turning to GYGIYYFIYSTWKGRTIYLEEIYV [D21E], the protein stability index worked out at 2.34.

GYGIYYFIYSTWKGRTIYLEPIYV [D21P]: the protein stability index turned out to be 2.44.

GYGIYYFIYSTWKGRTIYLEMIYV [D21M]: the protein stability index amounted to 3.04.

Consider GYGIYYFIYSTWKGRTIYLEDQYV [I22Q], for which the protein stability index amounted to 1.86.

For GYGIYYFIYSTWKGRTIYLEDCYV [I22C], the protein stability index is 2.41.

On to GYGIYYFIYSTWKGRTIYLEDSYV [I22S], for which the protein stability index was 3.3.

In the case of GYGIYYFIYSTWKGRTIYLEDEYV [I22E], the protein stability index was 2.92.

As for GYGIYYFIYSTWKTRTIYLEDIYV [G14T], the protein stability index was 2.34.

With GYGIYYFIYSTWKHRTIYLEDIYV [G14H], the protein stability index turned out to be 4.09.

For GYGIYYFIYSTWKNRTIYLEDIYV [G14N], the protein stability index is 2.71.

With GYGIYYFIYSTWKWRTIYLEDIYV [G14W], the protein stability index came to 2.43.

Consider GYGIYYFIYSTWKYRTIYLEDIYV [G14Y], for which the protein stability index stood at 3.58.

Regarding GYGIYYFIYSTWKGRMIYLEDIYV [T16M], the protein stability index amounted to 3.12.

For GYGIYYFIYSTWKGRRIYLEDIYV [T16R], the protein stability index came to 1.69.

Turning to GYGIYYFIYSTWKGRSIYLEDIYV [T16S], the protein stability index was determined as 3.8.

For GYGIYYFIYSTWKGRLIYLEDIYV [T16L], the protein stability index was 3.32.

For the variant GYGIYYFIYSTWKGRNIYLEDIYV [T16N], the protein stability index is 1.86.

Consider GYGIYYFIYSTWKGRWIYLEDIYV [T16W], for which the protein stability index amounted to 2.95.

For GYGIYYFIYSTWKGRFIYLEDIYV [T16F], the protein stability index was 3.53.

For the variant GYGNYYFIYSTWKGRTIYLEDIYV [I4N], the protein stability index worked out at 3.27.

On to GYGWYYFIYSTWKGRTIYLEDIYV [I4W], for which the protein stability index came to 2.71.

GYGVYYFIYSTWKGRTIYLEDIYV [I4V]: the protein stability index worked out at 1.71.

For the variant GYGCYYFIYSTWKGRTIYLEDIYV [I4C], the protein stability index stood at 3.26.
